The record followed here is patent publication US20190022241A1 (AbbVie / Abbott, published 2019).

In one assay the target is T1, human SEZ6L ECD-His (human, UniProt Q9BYH1 29-955).
T1 construct: whole entry named
T1 sequence: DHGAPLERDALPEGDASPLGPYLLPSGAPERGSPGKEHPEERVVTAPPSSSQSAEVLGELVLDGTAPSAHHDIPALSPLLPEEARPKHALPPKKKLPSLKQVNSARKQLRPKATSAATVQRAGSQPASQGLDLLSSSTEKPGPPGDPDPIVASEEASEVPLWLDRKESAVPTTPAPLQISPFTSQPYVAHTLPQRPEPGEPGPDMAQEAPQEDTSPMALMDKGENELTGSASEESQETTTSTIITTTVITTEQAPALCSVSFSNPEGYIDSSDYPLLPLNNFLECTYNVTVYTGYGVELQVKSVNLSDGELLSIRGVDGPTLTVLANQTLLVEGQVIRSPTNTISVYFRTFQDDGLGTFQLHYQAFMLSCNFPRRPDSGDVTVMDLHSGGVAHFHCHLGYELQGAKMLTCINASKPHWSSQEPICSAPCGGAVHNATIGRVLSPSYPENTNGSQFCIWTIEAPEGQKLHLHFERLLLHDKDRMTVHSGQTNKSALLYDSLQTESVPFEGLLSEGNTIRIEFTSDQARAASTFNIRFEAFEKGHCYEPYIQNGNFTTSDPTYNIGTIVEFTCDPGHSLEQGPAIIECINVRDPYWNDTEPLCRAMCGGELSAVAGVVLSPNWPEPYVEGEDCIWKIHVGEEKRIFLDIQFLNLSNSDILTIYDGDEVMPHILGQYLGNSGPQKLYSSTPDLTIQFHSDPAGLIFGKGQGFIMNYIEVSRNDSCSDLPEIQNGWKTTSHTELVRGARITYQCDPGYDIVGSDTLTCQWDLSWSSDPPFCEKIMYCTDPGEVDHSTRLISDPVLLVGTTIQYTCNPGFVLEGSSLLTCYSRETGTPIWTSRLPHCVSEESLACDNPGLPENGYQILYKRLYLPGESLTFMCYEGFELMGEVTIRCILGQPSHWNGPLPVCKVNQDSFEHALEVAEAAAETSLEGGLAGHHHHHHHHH
As to the kind of experiment: ELISA on plates coated with SEZ6L protein. Background: In an ELISA, binding on a coated surface is turned into a signal by an enzyme label.

A further assay concerns the target T2, human SEZ6L2 ECD-His (human, UniProt Q6UXD5 28-843).
T2 construct: whole entry named
Briefly: ELISA on plates coated with SEZ6L2 protein.

Assay [1] has as its target T3, rat SEZ6 on RIN-m5F cells (rat, UniProt Q7TSK2 20-991 (mouse entry)).
T3 construct: endogenous on RIN-m5F cells; also called rSEZ6
T3 chain: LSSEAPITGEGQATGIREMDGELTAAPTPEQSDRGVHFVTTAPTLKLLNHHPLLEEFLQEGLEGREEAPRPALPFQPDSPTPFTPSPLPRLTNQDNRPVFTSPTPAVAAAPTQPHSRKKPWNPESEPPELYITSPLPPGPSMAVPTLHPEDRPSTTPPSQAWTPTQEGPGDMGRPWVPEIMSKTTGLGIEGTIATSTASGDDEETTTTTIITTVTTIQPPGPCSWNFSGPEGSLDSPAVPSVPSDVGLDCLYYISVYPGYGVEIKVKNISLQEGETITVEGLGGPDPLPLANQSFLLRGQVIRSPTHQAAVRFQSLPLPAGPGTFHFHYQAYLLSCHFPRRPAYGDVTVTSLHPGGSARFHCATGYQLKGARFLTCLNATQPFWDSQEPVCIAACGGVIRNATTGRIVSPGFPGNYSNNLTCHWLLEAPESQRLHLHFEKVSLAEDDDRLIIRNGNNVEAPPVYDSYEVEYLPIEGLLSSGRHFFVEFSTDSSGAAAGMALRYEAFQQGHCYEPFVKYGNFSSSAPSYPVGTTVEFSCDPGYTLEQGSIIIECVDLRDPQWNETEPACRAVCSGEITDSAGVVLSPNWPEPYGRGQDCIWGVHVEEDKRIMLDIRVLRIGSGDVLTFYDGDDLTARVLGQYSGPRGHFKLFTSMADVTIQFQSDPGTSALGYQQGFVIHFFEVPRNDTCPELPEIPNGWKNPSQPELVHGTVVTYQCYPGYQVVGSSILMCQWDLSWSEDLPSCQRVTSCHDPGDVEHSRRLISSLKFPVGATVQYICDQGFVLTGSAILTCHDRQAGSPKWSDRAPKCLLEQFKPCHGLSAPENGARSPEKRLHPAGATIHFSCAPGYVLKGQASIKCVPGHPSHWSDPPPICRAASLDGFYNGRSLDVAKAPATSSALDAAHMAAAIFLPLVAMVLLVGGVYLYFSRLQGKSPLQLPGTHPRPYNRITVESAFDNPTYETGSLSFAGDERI
As to the kind of experiment: flow cytometry, RIN-m5F cells, 5 ug/mL antibody. In general terms: In flow cytometry, cells or beads pass a laser one at a time.
Experimental: Briefly 1×10⁵ cells per well of Neuro2a, RIN-5mF, or yeast displaying cynomolgus SEZ6 cells were incubated for 30 minutes with 50 μL PBS (2% FCS) buffer with 5 μg/mL antibody. […] After incubating for 15 minutes cells were washed twice with the PBS buffer and re-suspended in the same with DAPI for flow cytometry analysis of Neuro2a and Rin-m5F or buffer without DAPI for flow cytometric analysis of yeast cells with cSEZ6.

The target in the next assay is T4, hSEZ6-ECD-His (human, UniProt Q53EL9 20-925).
T4 construct: the whole entry is named; also called recombinant SEZ6-His; human recombinant SEZ6-His
As to the kind of experiment: bio-layer interferometry (ForteBio RED) or surface plasmon resonance (Biacore 2000) on human SEZ6-His; the table does not say which; column Hu Affinity (Kd, nM).

T2 sequence (Q6UXD5 other isoform, or with tags, fused parts or gaps): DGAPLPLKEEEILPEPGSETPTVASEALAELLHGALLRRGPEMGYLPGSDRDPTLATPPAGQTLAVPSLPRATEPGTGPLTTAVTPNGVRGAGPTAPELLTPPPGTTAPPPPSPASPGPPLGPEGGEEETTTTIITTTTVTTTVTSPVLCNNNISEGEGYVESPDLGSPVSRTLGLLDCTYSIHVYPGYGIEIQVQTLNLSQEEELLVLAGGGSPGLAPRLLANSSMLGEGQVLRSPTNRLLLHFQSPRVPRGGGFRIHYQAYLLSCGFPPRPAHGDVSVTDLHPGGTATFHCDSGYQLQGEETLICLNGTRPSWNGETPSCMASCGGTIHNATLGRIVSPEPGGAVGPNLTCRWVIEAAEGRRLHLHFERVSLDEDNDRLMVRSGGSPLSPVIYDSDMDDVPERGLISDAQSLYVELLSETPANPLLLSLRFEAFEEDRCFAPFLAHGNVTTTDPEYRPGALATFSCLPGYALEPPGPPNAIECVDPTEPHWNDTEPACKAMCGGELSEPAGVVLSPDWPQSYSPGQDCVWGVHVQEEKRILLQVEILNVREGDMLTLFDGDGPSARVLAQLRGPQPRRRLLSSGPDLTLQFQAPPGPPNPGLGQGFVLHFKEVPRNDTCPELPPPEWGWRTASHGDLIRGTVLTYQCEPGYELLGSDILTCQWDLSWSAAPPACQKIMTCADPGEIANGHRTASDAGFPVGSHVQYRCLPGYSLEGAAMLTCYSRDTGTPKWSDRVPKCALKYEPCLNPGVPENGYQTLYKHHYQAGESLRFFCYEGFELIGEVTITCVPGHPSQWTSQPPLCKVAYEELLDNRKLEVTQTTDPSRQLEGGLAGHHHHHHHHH
Text for hSEZ6-ECD-His: Various methods were used to analyze the binding and immunochemical characteristics of selected SEZ6 modulators generated as set forth above.

B1: SC17.17 (antibody, V domains shown)
VH: EVQLQQSGPEVMKPGASVKMSCKASGYTFTDYNMHWVKQNQGKSLEWIGEINPNIGGTGYNQKFKGKATLTVHKSSSTAYMELRSLTSEDSAVYYCARTYSYYSYEFAYWGQGTLVTVSA
VL: QIVLTQSPAIMSASPGEKVTMTCSASSSVSYMHWYQQKSGTSPKRWIYDTSKLPSGVPARFSGSGSGTSYSLTISSMEAEDAATYYCQQWSSTPPTFGAGTKLELK
notes: murine mAb
The term Kd denotes a measure of binding affinity in units of concentration. High values mean weaker binding, low ones tighter binding. Consider B1, for which the binding result in the assay with human SEZ6L ECD-His was “no binding (tested: 1 µg/mL)”; with human SEZ6L2 ECD-His, “no binding (tested: 1 µg/mL)”; in assay [1], “binds”. Besides, the affinity with hSEZ6-ECD-His, expressed as Kd, was 1.8 nM.

B2: SC17.34 (antibody, V domains shown)
VH: EVQLQQSGPELVKPGSSVKISCKASGYTFTDYNMDWVKQSHGKRLEWIGYIYPDNGGAGYNQKFKGKATLTVDKSSSTAYMELRSLTSEDSAVYYCSRSITTAWFAYWGQGTLVTVSA
VL: DIKMTQSPSSMYASLGERVTITCKASQDINSYLSWFQQKPGKSPKTLIYRANRLVDGVPSRFSGSGSGQDYSLTISSLEYEDMGIYYCLQYDEFPPTFGGGTKLEIK
notes: murine mAb
With B2, the binding result is “no binding (tested: 1 µg/mL)” with human SEZ6L ECD-His, “no binding (tested: 1 µg/mL)” in the assay with human SEZ6L2 ECD-His and “binds” in assay [1]. In the assay with hSEZ6-ECD-His, this molecule yielded a Kd of 15.1 nM.
